According to patent US20060228349A1:

How the values were obtained:
[1] = biological target: ADDL fibril preparation (Aβ1-42 fibrils); test: solution equilibrium titration, free IgG by ELISA, GraFit; SE 0.12
[2] = biological target: Aβ-derived diffusible ligands (synthetic ADDLs), soluble oligomers of amyloid β1-42; test: solution equilibrium titration, free IgG by ELISA, GraFit; SE 0.042
[3] = biological target: Aβ1-20 peptide; test: solution equilibrium titration, free IgG by ELISA, GraFit; SE 3.53
[4] = biological target: amyloid beta (1-40) peptide; test: solution equilibrium titration, free IgG by ELISA, GraFit; SE 0.62

Sequence of Aβ1-20 peptide (peptide, as listed by the source): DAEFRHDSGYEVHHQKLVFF

Substance: monoclonal antibody WO-2
- Kd [1]: 1.15 nM
- Kd [2]: 0.57 nM
- Kd [3]: 19.3 nM
- Kd [4]: 6.15 nM
